In article doi:10.1101/2025.06.02.657420, “Structure of the energy converting methyltransferase (Mtr) of Methanosarcina mazei in complex with an oxygen-stress responsive small protein” (bioRxiv, 2025):

T1: MtrE carrying a C-terminal TwinStrep-tag (Methanosarcina mazei, UniProt P80651 1-304)
T1 construct: MtrE of the Mtr complex, Methanosarcina mazei DSM 3647, locus MM_1547; the mtrE gene was amplified from chromosomal DNA with primers from the start codon to the last codon before the tag; The plasmid was put into wild-type M. mazei, so untagged chromosomal MtrE may stand in the trimeric complex beside the tagged copy; also called MtrE-TS; TS-tagged MtrE; source: M. mazei DSM 3647, from shuttle …
T1 sequence (looked up): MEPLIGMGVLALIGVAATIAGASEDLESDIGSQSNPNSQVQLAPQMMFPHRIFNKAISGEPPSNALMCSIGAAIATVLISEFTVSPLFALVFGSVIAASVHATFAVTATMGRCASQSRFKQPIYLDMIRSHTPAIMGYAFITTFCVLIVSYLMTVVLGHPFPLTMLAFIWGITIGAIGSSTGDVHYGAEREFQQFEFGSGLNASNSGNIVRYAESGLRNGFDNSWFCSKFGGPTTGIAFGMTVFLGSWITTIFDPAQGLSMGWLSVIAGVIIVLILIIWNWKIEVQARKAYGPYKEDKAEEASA


Experiments:
[1] = target: T1, MtrE carrying a C-terminal TwinStrep-tag; assay: cryo-EM structure; single-particle cryo-EM of the native Mtr complex purified from methanol-grown M. mazei through MtrE-TwinStrep (Strep-Tactin), LMNG-solubilised, 6 mg/mL with 1 mM CHAPSO; buffer 50 mM MOPS/NaOH pH 7.0, 10 mM MgCl2, 150 mM NaCl; C1 consensus map with local refinements of MtrA and MtrH; settings: both partners purified
[2] = target: the molecule itself; assay: as above

Binder | binding result [1] | binding result [2]
MtrF, subunit F of the Mtr complex (natural protein, UniProt P80654 1-72, looked up, MtrF of the Mtr complex, Methanosarcina mazei DSM 3647 (Goe1); single-spanning stalk subunit; Three copies stand in the whole complex; also called chain F; helix F; source: endogenous, M. mazei membranes, LMNG-solubilised, co-purified with MtrE-TwinStrep on Strep-Tactin) MAEEHEKGVPMVLAPQMGAIDATVESIRYRAQLIARNQKLDSGVAATGIIGFAAGFLFSLLMVIVLPVAVGL | binds | 
MtrG, subunit G of the Mtr complex (natural protein, UniProt P80656 1-72, looked up, MtrG of the Mtr complex, Methanosarcina mazei DSM 3647 (Goe1); single-spanning stalk subunit; Three copies stand in the whole complex and form a three-helix bundle in the membrane plane; also called chain G; source: endogenous, M. mazei membranes, LMNG-solubilised, co-purified with MtrE-TwinStrep on Strep-Tactin) MDGKAPAAFVEPGEFNEVMKRLDQIDEKVEFVNSEVAQRIGKKVGRDIGILYGGVIGLLLFLIYVQISSMFM |  | binds
MtrB, subunit B of the Mtr complex (natural protein, UniProt P80655 1-108, looked up, MtrB of the Mtr complex, Methanosarcina mazei DSM 3647 (Goe1); single-spanning stalk subunit; Three copies stand in the whole complex; also called chain B; helix B; source: endogenous, M. mazei membranes, LMNG-solubilised, co-purified with MtrE-TwinStrep on Strep-Tactin) MSIVRIAPEINLVMDTESGTVTQERKDSIQYSMEPVFERVDKLDAIADDLVNSLSPSKPLLNTWPGRENTSYIAGIYSNSFYGIIVGLAFSGLLALIIYITRLMGGVV | binds | 
